Source: patent US20110206625A1

Biological target: recombinant human BMP6 (human) (UniProt P22004)
Test: cell-based or functional assay

Chain of UniProt P22004 (P22004 382-513 limits assumed): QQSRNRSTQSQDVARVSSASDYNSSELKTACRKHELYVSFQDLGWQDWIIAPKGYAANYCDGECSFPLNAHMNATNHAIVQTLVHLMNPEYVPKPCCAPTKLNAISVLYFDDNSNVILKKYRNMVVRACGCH

BMP6-induced melanin content in human epidermal melanocytes (72 h): 15%
Substance: recombinant human Sclerostin (from UniProt Q9BQB4 24-213)
